Consider one protein from PMC4507534.

Common to all, as to experiment: purified protein
Common to all, as to settings: pH and temperature of the kinetic assay not given

Substrate in data set [1]: COC(=O)[C@@H](C)Oc1ccc(Oc2ncc(C(F)(F)F)cc2Cl)cc1
Substrate in data set [2]: COC(=O)C(C)Oc1ccc(Oc2ccc(Cl)cc2Cl)cc1
Substrate in data set [3]: C#CCOC(=O)[C@@H](C)Oc1ccc(Oc2ncc(Cl)cc2F)cc1
Substrate in data set [4]: CCCCOC(=O)[C@@H](C)Oc1ccc(Oc2ccc(C(F)(F)F)cn2)cc1
Substrate in data set [5]: CCOC(=O)[C@@H](C)Oc1ccc(Oc2cnc3cc(Cl)ccc3n2)cc1
Substrate in data set [6]: CCOC(=O)[C@@H](C)Oc1ccc(Oc2nc3ccc(Cl)cc3o2)cc1

As a reminder, the Km is the concentration of substrate that gives half-maximal velocity. As usually defined, the kcat is the number of substrate molecules converted per active site and unit of time at saturation. The kcat/Km is the turnover number divided by the Michaelis constant.

B1: FeH (FE-hydrolyzing carboxylesterase) (Rhodococcus sp. JPL-2) (protein)
chain: MSDIHGVCDARFSALREALERNLDSGEDVGASIAVTLDGEPVVDIWGGSMDAGGSRPWERDTITNVWSCSKTVTALAALMLVDRGQLDLDAPVARYWSDFAANGKEGILVRHLLSHTSGVSGWDQPFTMDDLADTTKATELLAAQAPWWEPGTASGYHALNYGHLIGEVVRRVDGRTLTGFIEEEISRPLGADFRLGVARSDYSRVSEVIPPPPLPIDFATLDPASVMVKTFTGPPADATAAWGDGWREAEIGAANGHSNARALARIQSVIACGGRVGGVRLLSADTIDAIFDEQSYGVDLVLGVPVRFGVGFGLPTPESVPFVPEGRICFWGGWGGSQIIVDTERRMTVAYVMNKMGPGLLGSDRSAEYVSAAFAAVP
Consider B1, for which the Km in “purified protein [1]” stood at 390 µM; in “purified protein [2]”, 410 µM; in “purified protein [3]”, 290 µM; in “purified protein [4]”, 360 µM; in the data set “purified protein [5]”, 230 µM; in “purified protein [6]”, 200 µM. For the same protein, the kcat in “purified protein [1]” stood at 0.37 s⁻¹; in the data set “purified protein [2]”, 0.33 s⁻¹; in “purified protein [3]” it was 0.61 s⁻¹; in “purified protein [4]”, 0.59 s⁻¹; in “purified protein [5]”, 0.75 s⁻¹; in “purified protein [6]”, 0.7 s⁻¹. Further, the kcat/Km in the data set “purified protein [1]” was 940 M⁻¹ s⁻¹; in “purified protein [2]” it was 810 M⁻¹ s⁻¹; in the data set “purified protein [3]”, 2090 M⁻¹ s⁻¹; in the data set “purified protein [4]” it was 1650 M⁻¹ s⁻¹; in the data set “purified protein [5]”, 3250 M⁻¹ s⁻¹; in the data set “purified protein [6]”, 3520 M⁻¹ s⁻¹.
